B1: Natural cytotoxicity triggering receptor 3 (Homo sapiens), O14931 (parent)
chain: MAWMLLLILIMVHPGSCALWVSQPPEIRTLEGSSAFLPCSFNASQGRLAIGSVTWFRDEVVPGKEVRNGTPEFRGRLAPLASSRFLHDHQAELHIRDVRGHDASIYVCRVEVLGLGVGTGNGTRLVVEKEHPQLGAGTVLLLRAGFYAVSFLSVAVGSTVYYQGKCLTWKGPRRQLPAVVPAPLPPPCGSSAHLLPPVPGG
partner: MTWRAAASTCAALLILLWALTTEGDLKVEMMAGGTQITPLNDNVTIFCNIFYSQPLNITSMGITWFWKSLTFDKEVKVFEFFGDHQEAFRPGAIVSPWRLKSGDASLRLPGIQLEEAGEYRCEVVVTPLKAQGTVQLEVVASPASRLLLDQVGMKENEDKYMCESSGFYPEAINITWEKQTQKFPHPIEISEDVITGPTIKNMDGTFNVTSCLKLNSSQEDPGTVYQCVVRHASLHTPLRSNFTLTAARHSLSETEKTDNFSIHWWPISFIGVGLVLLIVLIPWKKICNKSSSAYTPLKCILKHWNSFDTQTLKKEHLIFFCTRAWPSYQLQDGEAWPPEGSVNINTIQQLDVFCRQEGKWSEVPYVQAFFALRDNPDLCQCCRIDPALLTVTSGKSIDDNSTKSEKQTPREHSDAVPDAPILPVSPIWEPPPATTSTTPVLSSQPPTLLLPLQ

Variants of: B1
Settings: with nr3l1_human NCR3LG1, Q68D85

Variant | effect of a mutation on the interaction
R109S;E111S;L113A | decreasing interaction strength
E65S;R67S | decreasing interaction strength
R109E;E111R;L113A | decreasing interaction strength
I50A;S52A | decreasing interaction strength

From IntAct's records for PubMed 21444796
